Assay results: patent publication US20150050301A1, “Contiguous Overlapping Peptides for Treatment of House Dust Mites Allergy” (ANERGIS S.A., priority 2013, published 2015)

Assays:
[1] = test system: IgE of sera of house dust mite allergic patients binding to nDer p 2; assay: Competition ELISA on Der p 2 coated plates; parameters: species or system human
Protocol: (§1) Purified Der p 1 or Der p 2 at 1.0 μg/ml were coated overnight on 96-well Nunc Maxisorp® immunoplates (Thermo Fisher Scientific Inc., Wohlen, Switzerland). After blocking with 1% BSA, either twenty-fold, thirty-fold or forty-fold up to 200-fold dilutions of patient serum were added depending on specific IgE content. […] Sera of allergic patients were obtained from US and Europe (PlasmaLab International, Everett, Wash., USA and Biomnis, Lyon, France) respectively) selected for positive CAP for D. pteronyssinus and clear signal over background and used to test for competition with the peptides. Serial dilutions of each set of COPs, namely for Der p 1 Set A, B, C or D and for Der p 2 mixes D, E or F at concentrations ranging from 10^−5 to 10^−10 M were pre-incubated with selected serums for 15 min. on ice.

[2] = test system: IgE; assay: Direct ELISA of Der p 2 COPs; type: binding, human
[3] = Solubility Characteristics of COPs; type: physicochemical
Protocol: All COPs were synthesized by solid phase fmoc chemistry at research scale to allow determination of IgE binding. […] Peptides were resuspended either in water at 2 mg/ml or at 10 to 20 mg per ml in DMSO (see Table 1) and frozen in aliquots.

[4] = test system: IgE of sera of house dust mite allergic patients binding to nDer p 1; assay: Competition ELISA on Der p 1 coated plates; parameters: species or system human; settings: panel of 21 sera
Protocol: as §1

[5] = test system: RBL-703/21 cells transfected with human Fc epsilon RI receptor, sensitized with sera from patients with house dust mite allergy; assay: RBL degranulation; type: cell-based; settings: RBL cells pre-loaded with 18 human serums; AllerDM up to 10^−5M
Protocol: Degranulation assay was performed as described in [37]. RBL-703/21 cells transfected with human Fc epsilon RI receptor were plated in 96-well tissue culture plates (10^5 cells/well) overnight. Passive sensitization of RBL-703/21 cells was carried out with sera from patients with house dust mite allergy at 1:20 overnight. Unbound antibodies were removed by washing the cell layer twice in Hanks' balanced salt solution (Gibco, Life technologies) the next day. Degranulation of RBL cells was induced for 1 h at 37° C. by adding nDer p1, nDer p 2 or individual COPs and mixes at indicated concentrations diluted in Tyrode's buffer (130 mM NaCl, 5 mM KCl, 1.4 mM CaCl2, 1 mM MgCl2, 5.6 mM glucose, 10 mM HEPES pH7.4, 0.1% BSA). β-hexosaminidase activity was analyzed by incubating 30 μl of cell supernatant with 50 μl of 1.3 mg/ml 4-Nitrophenyl N-acetyl-β-D-glucosaminide (Sigma) in citrate buffer (0.1M, pH 4.5) for 1 h at 37° C. The reaction was stopped by addition of 100 μl glycine buffer (0.2M glycine, 0.2M NaCl, pH 10.7) and optical densities (OD) were measured at 405 nm.

With “SIDGLEVDVPGIDPNACHYMKCPLVKGQQYDIKYTWNVPKIAPKSENVVVTVKVMGDDGVLACAIATHAKIRD [AllerDM2.2]” the “effect of denaturing salts on IgE binding (Der p 2 competition ELISA)” value ([1]; denaturing salts incl. guanidinium chloride or urea, 30 min pre-incubation with 1M guanidinium chloride) was “strongly diminished IgE binding”, the “IgE binding in direct ELISA” value [2] was “found to bind IgE” and the Conc. [3] was 1700 µg/mL.

B1: Der p 1: purified natural Der p 1 house dust mite major allergen from Indoor Biotechnologies Ltd (protein)
chain: TNACSINGNAPAEIDLRQMRTVTPIRMQGGCGSCWAFSGVAATESAYLAYRNQSLDLAEQELVDCASQHGCHGDTIPRGIEYIQHNGVVQESYYRYVAREQSCRRPNAQRFGISNYCQIYPPNVNKIREALAQTHSAIAVIIGIKDLDAFRHYDGRTIIQRDNGYQPNYHAVNIVGYSNAQGVDYWIVRNSWDTNWGDNGYGYFAANIDLMMIEEYPYVVIL
With B1 the “concentration range of competition (Der p 1 control)” value [4] was 10^−7 to 10^−9 M and the “basophil degranulation of RBL cells, serum panel” value [5] was “able to induce degranulation”.

B2: Der p 2: purified natural Der p 2 house dust mite major allergen from Indoor Biotechnologies Ltd (protein)
chain: DQVDVKDCANHEIKKVLVPGCHGSEPCIIHRGKPFQLEALFEANQNSKTAKIEIKASIDGLEVDVPGIDPNACHYMKCPLVKGQQYDIKYTWNVPKIAPKSENVVVTVKVLGDNGVLACAIATHAKIRD
In the case of B2, the “concentration range of competition (Der p 2 control)” value ([1]; panel of 21 sera) is reported as 10^−7 to 10^−9 M and the “basophil degranulation of RBL cells, serum panel” value [5] is reported as “able to induce degranulation”.
